Data as given in doi:10.1101/2023.04.13.536802 (bioRxiv, 2023).
Where no end group is shown, it is not given here.

Target: recombinant transferrin receptor 1 (TfR1) ectodomain (residues C89-F763) (UniProt Q62351 89-763)
Experiment: BLI

Chain of recombinant transferrin receptor 1 (TfR1) ectodomain (residues C89-F763) (Q62351 89-763): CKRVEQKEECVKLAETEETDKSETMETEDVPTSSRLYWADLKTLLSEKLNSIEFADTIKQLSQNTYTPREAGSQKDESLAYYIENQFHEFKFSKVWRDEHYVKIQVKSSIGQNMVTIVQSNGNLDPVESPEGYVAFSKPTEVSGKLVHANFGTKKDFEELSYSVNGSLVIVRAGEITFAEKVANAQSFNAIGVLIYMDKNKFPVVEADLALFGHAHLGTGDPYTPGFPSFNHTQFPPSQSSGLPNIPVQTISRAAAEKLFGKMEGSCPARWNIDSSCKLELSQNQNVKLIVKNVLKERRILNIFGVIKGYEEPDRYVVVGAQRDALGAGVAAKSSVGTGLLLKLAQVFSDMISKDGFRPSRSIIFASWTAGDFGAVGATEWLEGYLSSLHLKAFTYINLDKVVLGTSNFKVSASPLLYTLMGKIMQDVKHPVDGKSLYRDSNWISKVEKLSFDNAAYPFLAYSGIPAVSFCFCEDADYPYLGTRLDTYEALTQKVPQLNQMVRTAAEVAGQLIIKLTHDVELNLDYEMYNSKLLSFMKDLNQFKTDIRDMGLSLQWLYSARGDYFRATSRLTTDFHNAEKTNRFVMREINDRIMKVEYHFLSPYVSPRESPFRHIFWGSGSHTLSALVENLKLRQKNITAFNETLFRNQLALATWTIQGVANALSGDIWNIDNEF

- Kd: 26 nM
Binder: THRPPMWSPVWP (also: biotin, position not given here) [T12, 12-mer peptide that binds transferrin receptor 1]
